Results taken from article PMC2757159.

How the values were obtained:
[1] = target: yeast copper chaperone for SOD1 (yeast); assay: native gel or EMSA
[2] = target: human copper chaperone for SOD1 (human); assay: native gel or EMSA
[3] = target: human copper chaperone for SOD1 (human); assay: SEC
[4] = target: human copper chaperone for SOD1 (human); assay: SEC; remark: listed apart in the source

Substance | stoichiometry N [1] | stoichiometry N [2] | stoichiometry N [3] | stoichiometry N [4]
human H46R/H48Q copper-zinc superoxide dismutase (SOD1) double mutant (from UniProt P00441 1-154) (enzyme) | 1 SOD1:CCS | 1 SOD1:CCS | – | –
human copper chaperone for SOD1 (natural protein) | – | – | 4 | 4
